Experimental data taken from article PMC7072298.
pKd: −log10 of the molar value. One block for each substance: values may come before it.

How the values were obtained:
[1] = target: glucocorticoid receptor LBD (Homo sapiens) (UniProt P04150); settings: cited from earlier work
[2] = target: HSP90αM domain (solid phase assays of Figure 2B and 2C); assay: ELISA; solid phase protein–protein interaction assay, dose-dependent; HSP90M domain (100 µg/mL) coated on plate, FN 30, 45, 70 and 120 kDa fragments at varying concentrations in solution
Tau (Homo sapiens) = Tau (Homo sapiens) (UniProt P10636); settings: cited from earlier work
Tau (Homo sapiens), sequence (P10636 2-758): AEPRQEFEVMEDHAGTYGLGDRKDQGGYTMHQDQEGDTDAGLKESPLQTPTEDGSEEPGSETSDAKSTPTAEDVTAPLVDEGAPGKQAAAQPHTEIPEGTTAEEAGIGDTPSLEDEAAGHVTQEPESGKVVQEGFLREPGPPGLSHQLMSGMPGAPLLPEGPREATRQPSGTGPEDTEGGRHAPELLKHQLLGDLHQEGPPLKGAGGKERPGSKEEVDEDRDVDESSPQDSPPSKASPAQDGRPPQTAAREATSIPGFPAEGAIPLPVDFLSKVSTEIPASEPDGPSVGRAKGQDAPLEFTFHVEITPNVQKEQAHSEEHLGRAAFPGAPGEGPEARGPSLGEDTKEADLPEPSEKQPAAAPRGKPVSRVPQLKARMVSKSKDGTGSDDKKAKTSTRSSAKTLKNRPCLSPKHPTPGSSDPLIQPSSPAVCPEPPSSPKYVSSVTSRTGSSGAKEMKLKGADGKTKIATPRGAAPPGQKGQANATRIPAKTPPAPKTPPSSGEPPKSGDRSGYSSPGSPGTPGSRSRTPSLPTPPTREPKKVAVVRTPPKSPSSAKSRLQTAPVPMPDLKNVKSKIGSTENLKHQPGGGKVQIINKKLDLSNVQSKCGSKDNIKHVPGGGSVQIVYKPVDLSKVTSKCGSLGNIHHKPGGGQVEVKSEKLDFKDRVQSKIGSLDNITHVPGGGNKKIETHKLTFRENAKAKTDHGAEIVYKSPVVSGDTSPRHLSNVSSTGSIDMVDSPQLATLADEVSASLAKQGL

glucocorticoid receptor LBD (Homo sapiens), sequence (P04150 523-777): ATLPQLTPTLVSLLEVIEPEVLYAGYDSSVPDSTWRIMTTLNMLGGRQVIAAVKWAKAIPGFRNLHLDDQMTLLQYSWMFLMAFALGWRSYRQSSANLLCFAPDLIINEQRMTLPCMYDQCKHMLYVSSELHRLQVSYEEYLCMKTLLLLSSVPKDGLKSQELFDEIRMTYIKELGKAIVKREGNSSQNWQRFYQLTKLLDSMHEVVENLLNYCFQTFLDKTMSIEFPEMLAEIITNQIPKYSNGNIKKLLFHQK

Substance: HSP90 (from UniProt P02829)
pKd [1]: 6.10

pKd [2]: 7.15
Substance: N-terminal FN 30-kDa heparin-binding fragment (FN30) (domain or fragment)

pKd [2]: 6.30
Substance: 70-kDa N-terminal FN fragment (FN70) (domain or fragment)

Substance: HSP90 (from UniProt P07900)
pKd (Tau (Homo sapiens)): 5.32

Kd of FN45 relative to that of FN30 (fold higher) [2]: 3 fold
Substance: 45-kDa gelatin-binding FN fragment (FN45) (domain or fragment)
